Measurements: IntAct's records for PubMed 25042851

Biological target: mlp3a_human MAP1LC3A (UniProt Q9H492)

| effect of a mutation on the interaction | Substance |
| --- | --- |
| decreasing interaction strength | Toll-interacting protein (Homo sapiens) (from UniProt Q9H0E2) W133A;T134A;H135A;I136A |
| disrupting interaction strength | Toll-interacting protein (Homo sapiens) (from UniProt Q9H0E2) W133A;T134A;H135A;I136A;W151A;Y152A;S153A;L154A |
| decreasing interaction strength | Toll-interacting protein (Homo sapiens) (from UniProt Q9H0E2) W151A;Y152A;S153A;L154A |
